B1: MBP-SNX17 (full-length, wild-type) [not stated] / Peptide LRP1_(14mer) [modified: 5-FAM (5-carboxyfluorescein) on the N-terminus; 5-FAM (5-carboxyfluorescein) on the N-terminus] [not stated] (parent complex)
chain 1: MHFSIPETESRSGDSGGSAYVAYNIHVNGVLHCRVRYSQLLGLHEQLRKEYGANVLPAFPPKKLFSLTPAEVEQRREQLEKYMQAVRQDPLLGSSETFNSFLRRAQQETQQVPTEEVSLEVLLSNGQKVLVNVLTSDQTEDVLEAVAAKLDLPDDLIGYFSLFLVREKEDGAFSFVRKLQEFELPYVSVTSLRSQEYKIVLRKSYWDSAYDDDVMENRVGLNLLYAQTVSDIERGWILVTKEQHRQLKSLQEKVSKKEFLRLAQTLRHYGYLRFDACVADFPEKDCPVVVSAGNSELSLQLRLPGQQLREGSFRVTRMRCWRVTSSVPLPSGSTSSPGRGRGEVRLELAFEYLMSKDRLQWVTITSPQAIMMSICLQSMVDELMVKKSGGSIRKMLRRRVGGTLRRSDSQQAVKSPPLLESPDATRESMVKLSSKLSAVSLRGIGSPSTDASASDVHGNFAFEGIGDEDL
chain 2: MNVEIGNPTYKMYE

By Kd is commonly meant a measure of binding affinity in units of concentration.

In this experiment the parent is B1. Put plainly: fluorescence anisotropy; 5-FAM-labeled LRP1 14-mer peptide. In general terms: In fluorescence polarisation assays a small probe gives low polarisation when free and higher when bound to something large.
As for chain 1 H457A, the Kd is 3800 nM.
As for chain 1 N459A, chain 1 F462A, the Kd was 1500 nM.

The values above are taken from article PMC11772769 (2024).
